Assay results: patent US20150175707A1

Key:
[1] = biological target: FcγRIIIa receptor, V158 (high affinity) variant, on Jurkat effector cells (UniProt P08637); experiment: cell-based or functional assay
[2] = biological target: Protein A (ready-to-use protein A sensortips, Fortebio) (Staphylococcus aureus) (UniProt P38507); experiment: ratio of the concentrations by A280 and by Octet protein A sensor tips
[3] = biological target: Protein A (ready-to-use protein A sensortips, Fortebio) (Staphylococcus aureus) (UniProt P38507); experiment: Octet QK, protein A sensor tips, against an IgG standard curve; A280 concentration of the sample 3818 µg/ml
[4] = biological target: C1q from pooled human serum (human) (UniProt P02745); experiment: C1q binding ELISA; antibody dilution series coated, 3% pooled human serum as C1q source, anti-C1q detection
[5] = biological target: IgG1-005-E345R/E430G/Y436I/S440K (human); experiment: HP-SEC of an equimolar mixture, PBS pH 7.4; Fc:Fc hetero-oligomerization
[6] = biological target: IgG1-005-E345R/E430G/S440K (human); experiment: as above
[7] = biological target: IgG1-005-E345R/E430G/S440Y (human); experiment: HP-SEC with multiple angle light scattering; Fc:Fc self-oligomerization
[8] = biological target: IgG1-005-E345R/E430G/S440Y (human); experiment: dynamic light scattering, 2.86 mg/mL in PBS pH 7.4; Fc:Fc self-oligomerization
[9] = biological target: Protein A (ready-to-use protein A sensortips, Fortebio) (Staphylococcus aureus) (UniProt P38507); experiment: Octet QK, protein A sensor tips, against an IgG standard curve; A280 concentration of the sample 2905 µg/ml

Row | % multimers (HP-SEC) [5] [%] | % multimers (HP-SEC) [6] [%] | Substance | EC50 (ADCC reporter assay) [1] [µg/mL] | Maximal signal (ADCC reporter assay) [1] [RLU] | A280/Protein A × 100 (%) [2] [%] | Octet-Protein A (apparent IgG concentration) [3] [µg/mL] | EC50 [4] [µg/mL] | apparent average MW of the multimeric peak (MALS) [7] [kDa] | monomeric subunits per complex (MALS) (monomeric subunits) [7] | apparent MW (DLS) [8] [kDa] | monomeric subunits per complex (DLS) (monomeric subunits) [8] | Octet-Protein A (apparent IgG concentration) [9] [µg/mL]
1 |  |  | HuMab 005 (wild type IgG1-005), fully human IgG1,κ antibody against human CD38 | 0.0095 | 335000 | 0.95 | 3620 | 1.55 |  |  |  |  | 
2 | 93 | 65 | IgG1-005-E345R/E430G/K439E/S440Y (antibody) |  |  |  |  |  |  |  |  |  | 
3 |  |  | HuMab 005 mutant E345R (antibody) |  |  |  |  | 0.836 |  |  |  |  | 
4 |  |  | IgG1-005-E345R/E430G/S440Y (antibody) | 0.036 | 394000 | 0.71 |  | 0.52 | 772 | 5.4 | 876 | 6.17 | 2050
